# Experimental data reported in the RNAGym collection of RNA variant scans (doi:10.1021/acssynbio.7b00057).
# B1: Pistol ribozyme (parent)
# chain: GGGUCGUUGUUCCAUAAUCGCGUGGAUAUGGCACGCAAGUUUCUACCGGGCACCGUAAAUGUCCGACUGGAGCCGUUCGGGCGGCUAUAAACAGACCUCAGGCCCGAAGCGUGGCGGCACCUGCCGCCGGUGGUAAAAAAGAUCGGAAGAGCACACGUCU
# Variants of: B1
# Experiment: aptazyme ON/OFF ratio, guanine; higher = stronger switching; co-transcriptional cleavage with and without guanine
row,Variant,aptazyme ON/OFF ratio
1,GGGUCGUACUAUCAUAAUCGCGUGGAUAUGGCACGCAAGUUUCUACCGGGCACCGUAAAUGUCCGACUGGAGCCGUUCGGGCGGCUAUAAACAGACCUCAGGCCCGAAGCGUGGCGGCACCUGCCGCCGGUGGUAAAAAAGAUCGGAAGAGCACACGUCU [U8A G9C U11A C12U],1.22
2,GGGUCGUACUAACAUAAUCGCGUGGAUAUGGCACGCAAGUUUCUACCGGGCACCGUAAAUGUCCGACUGGAGCCGUUCGGGCGGCUAUAAACAGACCUCAGGCCCGAAGCGUGGCGGCACCUGCCGCCGGUGGUAAAAAAGAUCGGAAGAGCACACGUCU [U8A G9C U11A C12A],1.19
3,GGGUCGUACUAGCAUAAUCGCGUGGAUAUGGCACGCAAGUUUCUACCGGGCACCGUAAAUGUCCGACUGGAGCCGUUCGGGCGGCUAUAAACAGACCUCAGGCCCGAAGCGUGGCGGCACCUGCCGCCGGUGGUAAAAAAGAUCGGAAGAGCACACGUCU [U8A G9C U11A C12G],1.22
4,GGGUCGUACUCAGAUAAUCGCGUGGAUAUGGCACGCAAGUUUCUACCGGGCACCGUAAAUGUCCGACUGGAGCCGUUCGGGCGGCUAUAAACAGACCUCAGGCCCGAAGCGUGGCGGCACCUGCCGCCGGUGGUAAAAAAGAUCGGAAGAGCACACGUCU [U8A G9C U11C C12A C13G],1.05
5,GGGUCGUACUCAUAUAAUCGCGUGGAUAUGGCACGCAAGUUUCUACCGGGCACCGUAAAUGUCCGACUGGAGCCGUUCGGGCGGCUAUAAACAGACCUCAGGCCCGAAGCGUGGCGGCACCUGCCGCCGGUGGUAAAAAAGAUCGGAAGAGCACACGUCU [U8A G9C U11C C12A C13U],1.06
6,GGGUCGUACUCAAAUAAUCGCGUGGAUAUGGCACGCAAGUUUCUACCGGGCACCGUAAAUGUCCGACUGGAGCCGUUCGGGCGGCUAUAAACAGACCUCAGGCCCGAAGCGUGGCGGCACCUGCCGCCGGUGGUAAAAAAGAUCGGAAGAGCACACGUCU [U8A G9C U11C C12A C13A],1.07
7,GGGUCGUACUCCCAUAAUCGCGUGGAUAUGGCACGCAAGUUUCUACCGGGCACCGUAAAUGUCCGACUGGAGCCGUUCGGGCGGCUAUAAACAGACCUCAGGCCCGAAGCGUGGCGGCACCUGCCGCCGGUGGUAAAAAAGAUCGGAAGAGCACACGUCU [U8A G9C U11C],1.03
8,GGGUCGUACUACCAUAAUCGCGUGGAUAUGGCACGCAAGUUUCUACCGGGCACCGUAAAUGUCCGACUGGAGCCGUUCGGGCGGCUAUAAACAGACCUCAGGCCCGAAGCGUGGCGGCACCUGCCGCCGGUGGUAAAAAAGAUCGGAAGAGCACACGUCU [U8A G9C U11A],1.21
9,GGGUCGUACGGGGAUAAUCGCGUGGAUAUGGCACGCAAGUUUCUACCGGGCACCGUAAAUGUCCGACUGGAGCCGUUCGGGCGGCUAUAAACAGACCUCAGGCCCGAAGCGUGGCGGCACCUGCCGCCGGUGGUAAAAAAGAUCGGAAGAGCACACGUCU [U8A G9C U10G U11G C12G C13G],1.23
10,GGGUCGUACGGGAAUAAUCGCGUGGAUAUGGCACGCAAGUUUCUACCGGGCACCGUAAAUGUCCGACUGGAGCCGUUCGGGCGGCUAUAAACAGACCUCAGGCCCGAAGCGUGGCGGCACCUGCCGCCGGUGGUAAAAAAGAUCGGAAGAGCACACGUCU [U8A G9C U10G U11G C12G C13A],1.14
11,GGGUCGUACGGGUAUAAUCGCGUGGAUAUGGCACGCAAGUUUCUACCGGGCACCGUAAAUGUCCGACUGGAGCCGUUCGGGCGGCUAUAAACAGACCUCAGGCCCGAAGCGUGGCGGCACCUGCCGCCGGUGGUAAAAAAGAUCGGAAGAGCACACGUCU [U8A G9C U10G U11G C12G C13U],1.31
12,GGGUCGUACUAAAAUAAUCGCGUGGAUAUGGCACGCAAGUUUCUACCGGGCACCGUAAAUGUCCGACUGGAGCCGUUCGGGCGGCUAUAAACAGACCUCAGGCCCGAAGCGUGGCGGCACCUGCCGCCGGUGGUAAAAAAGAUCGGAAGAGCACACGUCU [U8A G9C U11A C12A C13A],1.22
13,GGGUCGUACUAAGAUAAUCGCGUGGAUAUGGCACGCAAGUUUCUACCGGGCACCGUAAAUGUCCGACUGGAGCCGUUCGGGCGGCUAUAAACAGACCUCAGGCCCGAAGCGUGGCGGCACCUGCCGCCGGUGGUAAAAAAGAUCGGAAGAGCACACGUCU [U8A G9C U11A C12A C13G],1.18
14,GGGUCGUACUAAUAUAAUCGCGUGGAUAUGGCACGCAAGUUUCUACCGGGCACCGUAAAUGUCCGACUGGAGCCGUUCGGGCGGCUAUAAACAGACCUCAGGCCCGAAGCGUGGCGGCACCUGCCGCCGGUGGUAAAAAAGAUCGGAAGAGCACACGUCU [U8A G9C U11A C12A C13U],1.21
15,GGGUCGUACUACUAUAAUCGCGUGGAUAUGGCACGCAAGUUUCUACCGGGCACCGUAAAUGUCCGACUGGAGCCGUUCGGGCGGCUAUAAACAGACCUCAGGCCCGAAGCGUGGCGGCACCUGCCGCCGGUGGUAAAAAAGAUCGGAAGAGCACACGUCU [U8A G9C U11A C13U],1.16
16,GGGUCGUACUACAAUAAUCGCGUGGAUAUGGCACGCAAGUUUCUACCGGGCACCGUAAAUGUCCGACUGGAGCCGUUCGGGCGGCUAUAAACAGACCUCAGGCCCGAAGCGUGGCGGCACCUGCCGCCGGUGGUAAAAAAGAUCGGAAGAGCACACGUCU [U8A G9C U11A C13A],1.16
17,GGGUCGUACUACGAUAAUCGCGUGGAUAUGGCACGCAAGUUUCUACCGGGCACCGUAAAUGUCCGACUGGAGCCGUUCGGGCGGCUAUAAACAGACCUCAGGCCCGAAGCGUGGCGGCACCUGCCGCCGGUGGUAAAAAAGAUCGGAAGAGCACACGUCU [U8A G9C U11A C13G],1.06
18,GGGUCGUACUAGAAUAAUCGCGUGGAUAUGGCACGCAAGUUUCUACCGGGCACCGUAAAUGUCCGACUGGAGCCGUUCGGGCGGCUAUAAACAGACCUCAGGCCCGAAGCGUGGCGGCACCUGCCGCCGGUGGUAAAAAAGAUCGGAAGAGCACACGUCU [U8A G9C U11A C12G C13A],1.12

row,Variant,aptazyme ON/OFF ratio
1,GGGUCGUACUAGGAUAAUCGCGUGGAUAUGGCACGCAAGUUUCUACCGGGCACCGUAAAUGUCCGACUGGAGCCGUUCGGGCGGCUAUAAACAGACCUCAGGCCCGAAGCGUGGCGGCACCUGCCGCCGGUGGUAAAAAAGAUCGGAAGAGCACACGUCU [U8A G9C U11A C12G C13G],1.17
2,GGGUCGUACUAGUAUAAUCGCGUGGAUAUGGCACGCAAGUUUCUACCGGGCACCGUAAAUGUCCGACUGGAGCCGUUCGGGCGGCUAUAAACAGACCUCAGGCCCGAAGCGUGGCGGCACCUGCCGCCGGUGGUAAAAAAGAUCGGAAGAGCACACGUCU [U8A G9C U11A C12G C13U],1.14
3,GGGUCGUACGGAGAUAAUCGCGUGGAUAUGGCACGCAAGUUUCUACCGGGCACCGUAAAUGUCCGACUGGAGCCGUUCGGGCGGCUAUAAACAGACCUCAGGCCCGAAGCGUGGCGGCACCUGCCGCCGGUGGUAAAAAAGAUCGGAAGAGCACACGUCU [U8A G9C U10G U11G C12A C13G],1.14
4,GGGUCGUACGGAUAUAAUCGCGUGGAUAUGGCACGCAAGUUUCUACCGGGCACCGUAAAUGUCCGACUGGAGCCGUUCGGGCGGCUAUAAACAGACCUCAGGCCCGAAGCGUGGCGGCACCUGCCGCCGGUGGUAAAAAAGAUCGGAAGAGCACACGUCU [U8A G9C U10G U11G C12A C13U],1.21
5,GGGUCGUACUAUGAUAAUCGCGUGGAUAUGGCACGCAAGUUUCUACCGGGCACCGUAAAUGUCCGACUGGAGCCGUUCGGGCGGCUAUAAACAGACCUCAGGCCCGAAGCGUGGCGGCACCUGCCGCCGGUGGUAAAAAAGAUCGGAAGAGCACACGUCU [U8A G9C U11A C12U C13G],1.15
6,GGGUCGUACUAUUAUAAUCGCGUGGAUAUGGCACGCAAGUUUCUACCGGGCACCGUAAAUGUCCGACUGGAGCCGUUCGGGCGGCUAUAAACAGACCUCAGGCCCGAAGCGUGGCGGCACCUGCCGCCGGUGGUAAAAAAGAUCGGAAGAGCACACGUCU [U8A G9C U11A C12U C13U],1.15
7,GGGUCGUACUAUAAUAAUCGCGUGGAUAUGGCACGCAAGUUUCUACCGGGCACCGUAAAUGUCCGACUGGAGCCGUUCGGGCGGCUAUAAACAGACCUCAGGCCCGAAGCGUGGCGGCACCUGCCGCCGGUGGUAAAAAAGAUCGGAAGAGCACACGUCU [U8A G9C U11A C12U C13A],1.14
8,GGGUCGUACGGUAAUAAUCGCGUGGAUAUGGCACGCAAGUUUCUACCGGGCACCGUAAAUGUCCGACUGGAGCCGUUCGGGCGGCUAUAAACAGACCUCAGGCCCGAAGCGUGGCGGCACCUGCCGCCGGUGGUAAAAAAGAUCGGAAGAGCACACGUCU [U8A G9C U10G U11G C12U C13A],1.08
9,GGGUCGUACGGUUAUAAUCGCGUGGAUAUGGCACGCAAGUUUCUACCGGGCACCGUAAAUGUCCGACUGGAGCCGUUCGGGCGGCUAUAAACAGACCUCAGGCCCGAAGCGUGGCGGCACCUGCCGCCGGUGGUAAAAAAGAUCGGAAGAGCACACGUCU [U8A G9C U10G U11G C12U C13U],1.11
10,GGGUCGUACGGUGAUAAUCGCGUGGAUAUGGCACGCAAGUUUCUACCGGGCACCGUAAAUGUCCGACUGGAGCCGUUCGGGCGGCUAUAAACAGACCUCAGGCCCGAAGCGUGGCGGCACCUGCCGCCGGUGGUAAAAAAGAUCGGAAGAGCACACGUCU [U8A G9C U10G U11G C12U C13G],1.08
11,GGGUCGUACGGCGAUAAUCGCGUGGAUAUGGCACGCAAGUUUCUACCGGGCACCGUAAAUGUCCGACUGGAGCCGUUCGGGCGGCUAUAAACAGACCUCAGGCCCGAAGCGUGGCGGCACCUGCCGCCGGUGGUAAAAAAGAUCGGAAGAGCACACGUCU [U8A G9C U10G U11G C13G],1.16
12,GGGUCGUACGGCUAUAAUCGCGUGGAUAUGGCACGCAAGUUUCUACCGGGCACCGUAAAUGUCCGACUGGAGCCGUUCGGGCGGCUAUAAACAGACCUCAGGCCCGAAGCGUGGCGGCACCUGCCGCCGGUGGUAAAAAAGAUCGGAAGAGCACACGUCU [U8A G9C U10G U11G C13U],1.23
13,GGGUCGUACGGCAAUAAUCGCGUGGAUAUGGCACGCAAGUUUCUACCGGGCACCGUAAAUGUCCGACUGGAGCCGUUCGGGCGGCUAUAAACAGACCUCAGGCCCGAAGCGUGGCGGCACCUGCCGCCGGUGGUAAAAAAGAUCGGAAGAGCACACGUCU [U8A G9C U10G U11G C13A],1.23
14,GGGUCGUACUCGCAUAAUCGCGUGGAUAUGGCACGCAAGUUUCUACCGGGCACCGUAAAUGUCCGACUGGAGCCGUUCGGGCGGCUAUAAACAGACCUCAGGCCCGAAGCGUGGCGGCACCUGCCGCCGGUGGUAAAAAAGAUCGGAAGAGCACACGUCU [U8A G9C U11C C12G],1.07
15,GGGUCGUACUCACAUAAUCGCGUGGAUAUGGCACGCAAGUUUCUACCGGGCACCGUAAAUGUCCGACUGGAGCCGUUCGGGCGGCUAUAAACAGACCUCAGGCCCGAAGCGUGGCGGCACCUGCCGCCGGUGGUAAAAAAGAUCGGAAGAGCACACGUCU [U8A G9C U11C C12A],1.08
16,GGGUCGUACUCGAAUAAUCGCGUGGAUAUGGCACGCAAGUUUCUACCGGGCACCGUAAAUGUCCGACUGGAGCCGUUCGGGCGGCUAUAAACAGACCUCAGGCCCGAAGCGUGGCGGCACCUGCCGCCGGUGGUAAAAAAGAUCGGAAGAGCACACGUCU [U8A G9C U11C C12G C13A],1.07
17,GGGUCGUACGGUCAUAAUCGCGUGGAUAUGGCACGCAAGUUUCUACCGGGCACCGUAAAUGUCCGACUGGAGCCGUUCGGGCGGCUAUAAACAGACCUCAGGCCCGAAGCGUGGCGGCACCUGCCGCCGGUGGUAAAAAAGAUCGGAAGAGCACACGUCU [U8A G9C U10G U11G C12U],1.23
18,GGGUCGUACGGGCAUAAUCGCGUGGAUAUGGCACGCAAGUUUCUACCGGGCACCGUAAAUGUCCGACUGGAGCCGUUCGGGCGGCUAUAAACAGACCUCAGGCCCGAAGCGUGGCGGCACCUGCCGCCGGUGGUAAAAAAGAUCGGAAGAGCACACGUCU [U8A G9C U10G U11G C12G],1.24
